Results published in patent US20250289903A1 (PURINNOMIA BIOTECH, published 2025).

T1: human CD39 (ectonucleoside triphosphate diphosphohydrolase-1) (human, UniProt P49961 1-510)
T1 construct: whole, on cells; also called hCD39; ENTPD1
T1 sequence (looked up): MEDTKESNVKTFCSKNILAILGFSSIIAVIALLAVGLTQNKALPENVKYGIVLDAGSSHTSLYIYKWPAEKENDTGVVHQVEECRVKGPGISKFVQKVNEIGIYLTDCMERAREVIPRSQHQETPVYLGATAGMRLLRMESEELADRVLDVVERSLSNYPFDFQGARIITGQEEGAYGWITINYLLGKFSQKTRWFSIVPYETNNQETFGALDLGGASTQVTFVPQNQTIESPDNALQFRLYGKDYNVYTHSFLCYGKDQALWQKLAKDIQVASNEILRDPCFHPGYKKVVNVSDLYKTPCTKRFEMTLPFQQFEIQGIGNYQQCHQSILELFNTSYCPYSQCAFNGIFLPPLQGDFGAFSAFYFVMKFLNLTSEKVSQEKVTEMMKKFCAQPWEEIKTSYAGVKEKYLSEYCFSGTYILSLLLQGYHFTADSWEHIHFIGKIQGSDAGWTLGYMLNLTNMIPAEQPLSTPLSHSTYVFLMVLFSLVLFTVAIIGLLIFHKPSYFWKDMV


How the values were obtained:
[1] = molecular target: T1, human CD39 (ectonucleoside triphosphate …); test: flow cytometry epitope competition on HCC1739BL cells, competitor PE-Clone A1
Procedure: HCC1739BL cells were incubated with a panel of 18 anti-human CD39 monoclonal antibodies (Human/Rabbit chimeric clones; unconjugated, 2 μg/mL) at 4° C. for 30 minutes, followed by washing and staining with PE-conjugated mouse anti-human CD39 monoclonal antibody (Clone A1) for 30 minutes at 4° C. Cells were then analyzed by flow cytometry and PE median fluorescence intensity (MFI) was detected. Cells incubated with media instead of chimeric antibody were used as control.
Unconjugated anti-human CD39 monoclonal antibodies (Human/Rabbit chimeric clones; 2 μg/mL) were incubated with HCC1739BL cells (1×10⁵ cells) for 30 minutes at 4° C. Cells were then washed twice with cell staining buffer and stained with PE-conjugated mouse anti-human CD39 monoclonal antibody Clone A1 (0.25 μg/mL, Biolegend #328208) for 30 minutes at 4° C. Cells were then washed twice and analyzed by a Cytek™ Aurora flow cytometer. PE median fluorescence intensity (MFI) was detected, and data was analyzed by FCS […] Express 7 software (De Novo Software). Cells incubated with media instead of the chimeric antibody were used as control.

[2] = molecular target: T1, human CD39 (ectonucleoside triphosphate …); test: stable immune complex assay, HCC1739BL cells, 2 µg/mL, anti-human IgG Fc AF488 MFI, 24 h 37°C vs 20 min 4°C
Procedure: Exemplary anti-human CD39 antibodies presenting high, low and no ADCC activity (2 μg/mL) were incubated with HCC1739BL cells for 24 hours at 37° C. in 5% CO₂ or 20 minutes at 4° C., followed by secondary antibody staining (anti-human IgG (Fc specific), Alexa Fluor® 488) for 30 minutes at 4° C. Cells were then washed and analyzed by flow cytometry. The difference in AF488 MFI between 20 minutes and 24 hours treatment represents the loss of human CD39 on cell membrane that was calculated as described in Materials and Methods. […] Hu/Ra: Human/Rabbit chimeric antibody; hIgG1: humanized rabbit antibody, IgG1 isotype.
HCC1739BL cells (5×10⁵ cells/mL) were incubated with anti-human CD39 monoclonal antibodies (2 μg/mL) or left untreated for 24 hours at 37° C. in 5% CO₂. The following day, untreated cells were exposed to the same panel of monoclonal antibodies (2 μg/mL) but for 20 minutes at 4° C. to obtain the basal level of CD39 expression. Cells were then washed twice with cell staining buffer and stained with anti-human IgG (Fc specific) Alexa Fluor® 488 (1:2000) for 30 minutes at 4° C., followed by two additional washes and fixation with paraformaldehyde (PFA, 2%) for 10 minutes at room temperature. Lastly, cells were washed twice and analyzed by a Cytek™ Aurora flow cytometer (Cytek Biosciences). Alexa Fluor® 488 (AF488) MFI was detected, and data was analyzed by FCS Express 7 software (De Novo Software). The percentage of human CD39 loss on cell membrane at 24 hours was calculated as: [(20 min MFI-24 h MFI/20 min MFI)]X100.

[3] = molecular target: T1, human CD39 (ectonucleoside triphosphate …); test: cell-based or functional assay

Binder | binding result [1] | loss of human CD39 (immune complex) on cell membrane at 24 hours [2] [%] | other results
PEO20, Human/Rabbit chimeric anti-human CD39 monoclonal antibody (antibody, V domains shown, also called clone PEO20) VH: QSVEESGGRLVTPGTPLTLTCTVSGFSLSSYAISWVRQAPGKGLEYIAIINSYGTTYYASWAKGRVTISKTSSTVDLKISSPTTEDTATYFCARGDSYGSGVGLGLWGPGTLVTVSS VL: AYDMTQTPASVEVAVGGTVTIKCQASQNIYSNLAWYQQKPGQRPKLLIYRASSLASGVPSRFSGSGSGTEFTLTISGVQCDDAATYYCQQGFSSNNVDNTFGGGTEVVVK | – | < 30 | –
PEO22, optimized afucosylated counterpart of PEOWT22 (antibody, human IgG1, kappa, V domains shown, afucosylated (Fc glycan); no genetic modifications) VH: EVQLVESGGGVVRPGGSLRLSCAASGFTFSSYAMHWVRQAPGKGLEWVAVISYDVSNKYYADSVKGRFTISRDNSKNTLYLQMNSLRAEDTAVYYCARSYYYYYGMDVWGQGTTVTVSS VL: DVVMTQSPSSLSASVGDRVTITCRASQSISRYLAWYQQKPGQAPRLLIYDASNRATGIPVRFSGSGSGTDFTLTISRLEPEDFAVYYCQQFGRSPRTFGQGTRLEIKR | – | – | EC50 of NK cytotoxicity toward human eosinophils (in-vitro ADCC assay, human NK effector cells) [3]: 0.294 ng/mL
PEOWT22, fully human anti-CD39 monoclonal antibody (parent, fully fucosylated) (antibody, human IgG1, kappa, V domains shown) VH: EVQLVESGGGVVRPGGSLRLSCAASGFTFSSYAMHWVRQAPGKGLEWVAVISYDVSNKYYADSVKGRFTISRDNSKNTLYLQMNSLRAEDTAVYYCARSYYYYYGMDVWGQGTTVTVSS VL: DVVMTQSPSSLSASVGDRVTITCRASQSISRYLAWYQQKPGQAPRLLIYDASNRATGIPVRFSGSGSGTDFTLTISRLEPEDFAVYYCQQFGRSPRTFGQGTRLEIKR | – | – | EC50 of NK cytotoxicity toward human eosinophils (in-vitro ADCC assay, human NK effector cells) [3]: 3.03 ng/mL
PEO24, Human/Rabbit chimeric anti-human CD39 monoclonal antibody (antibody, V domains shown, also called clone PEO24) VH: QSVEESGGRLVTPGTPLTLTCTVSGIDLSSNAMSWVRQAPGKGLEYIGIIRNNDITYYASWAKGRFTISKTSTTVDLIITSPTTEDTATYFCARGGGSYSIVFWNLWGPGTLVTVSS VL: AYDMTQTPASVEVAVGGTVTINCQASERIYSNLAWYQQKPGQRPKLLIYYASTLASGVSSRFKGSGSGTQFTLTISGVQCADAATYYCQQGYSNNNVDNTFGGGTEVVVR | binds | – | –
PEO18, Human/Rabbit chimeric anti-human CD39 monoclonal antibody (antibody, V domains shown, also called clone PEO18) VH: QSVKEAGGRLVTPGGSLTLTCTVSGFSLSAYGISWVRQAPGKGLEWIGIIYSSGRTYYANWAKGRFTISKTSSTTVDLKMTSLTTEDTAAYFCARSRAGISSGDGFDSWGPGTLVTVSS VL: ALVMTQTPSSVSAAVGGTVTINCQASQNIYSNLAWYQQKPGQRPQLLIYRASTLASGVPSRFKGSASGTEYTLTISGVQCDDAATYYCQQGFDSSNIDNTFGGGTEVVVT | binds | – | –

Continued, in another order:

binding result [1] | loss of human CD39 (immune complex) on cell membrane at 24 hours [2] [%] | Binder | other results
binds | – | PEO23, Human/Rabbit chimeric anti-human CD39 monoclonal antibody (antibody, V domains shown, also called clone PEO23) VH: QSVEESGGRLVTPGTPLTLTCTASGFSLSTHAINWVRQAPGKGLEWIGITYASGRTYYASWAKGRFTISKTSTTVDLKITSPTTEDTATYFCARNGADETFYYFDLWGPGTLVTVSS VL: AYDMTQTPASVEAAVGGTVTIKCQASQNINTWLSWYQQKAGQPPKLLIYRASTLASGVSSRFKGSGSGTQFTLTISGVECADAATYYCQQYDASINIDNAFGGGTEVVVK | –
– | < 30 | PEONP22, afucosylated counterpart of PEOWT22 (antibody, human IgG1, kappa, V domains shown, afucosylated (Fc glycan); no genetic modifications, Produced by CHO cells stably transfected with the parental PEOWT22 plasmid) VH: EVQLVESGGGVVRPGGSLRLSCAASGFTFSSYAMHWVRQAPGKGLEWVAVISYDVSNKYYADSVKGRFTISRDNSKNTLYLQMNSLRAEDTAVYYCARSYYYYYGMDVWGQGTTVTVSS VL: DVVMTQSPSSLSASVGDRVTITCRASQSISRYLAWYQQKPGQAPRLLIYDASNRATGIPVRFSGSGSGTDFTLTISRLEPEDFAVYYCQQFGRSPRTFGQGTRLEIKR | –
– | < 30 | PEO19, Human/Rabbit chimeric anti-human CD39 monoclonal antibody (antibody, V domains shown, also called clone PEO19) VH: QSVEESGGRLVTPGTHLTLTCTVSGFSLSKSIISWVRQAPGKGLEYIGIIGSSGSTYYANWAKGRFTISKTSSTTVDLRMTSLTPEDTATYFCARGLLYSGNKSWGPGTLVTVSS VL: AIDMTQTPSSVSAAVGGTVTINCQSSQSVLLNNQLSWFQQKPGQPPKLLIYDASTLESGVPSRFTGSGSGTQFTLTISDLECDDAATYYCLGGYSGNLYAFGGGTEVLVK | –
– | < 30 | PEO21, Human/Rabbit chimeric anti-human CD39 monoclonal antibody (antibody, V domains shown, also called clone PEO21) VH: QSVEESGGRLVTPGTPLTLTCTVSGFSLSSYAMSWVRQAPGKGLEYIGIISSSGSTYYASWAKGRFTISKTSTTVDLKISSPTTEDTATYFCARDRVIYSIGPYYFNLWGPGTLVTVSS VL: AYDMTQTPSSVSATVGGTVTINCQASEIIYSNLAWYQQKPGQPPKLLIYGASTLASGVPSRFKGSGSGTEYTLTISDLQCDDAATYYCQQSFSSNNVGNIFGGGTEVVVK | –
